Measured values: article PMC5378476, “Mechanism of ribosome rescue by ArfA and RF2” (eLife, 2017)

Target: T1, release factor RF2 (E. coli K12, UniProt P07012 1-365)
T1 construct: Peptide chain release factor RF2, E. coli K12 strain; SPF motif at 205-207, GGQ motif at 250-252, switch loop aa 315-323; source: purified as described (Korostelev et al., 2008; Laurberg et al., 2008)
T1 sequence: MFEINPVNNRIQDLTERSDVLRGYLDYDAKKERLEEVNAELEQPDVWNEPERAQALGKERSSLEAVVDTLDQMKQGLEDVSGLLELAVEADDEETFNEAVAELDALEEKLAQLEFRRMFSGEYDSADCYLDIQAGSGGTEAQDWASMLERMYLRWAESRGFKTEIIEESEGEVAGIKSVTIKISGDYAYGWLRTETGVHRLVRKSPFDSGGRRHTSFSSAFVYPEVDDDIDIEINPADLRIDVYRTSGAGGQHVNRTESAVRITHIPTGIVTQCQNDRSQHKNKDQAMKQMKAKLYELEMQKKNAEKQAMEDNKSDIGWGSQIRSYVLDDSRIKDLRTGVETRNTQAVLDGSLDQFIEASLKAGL
Experiment: cryo-EM structure; 70S•mRNA•tRNAfMet•ArfA•RF2 complex reconstituted in vitro from 30S and 50S subunits, mRNA truncated after the P-site AUG; 20 mM Tris-HCl pH 7.0, 100 mM NH4Cl, 20 mM MgCl2, 0.5 mM EDTA, 6 mM βME; on grids ~0.45 µM 70S, 10 µM ArfA, 10 µM RF2; two classes (Structure I, compact RF2; Structure II, extended RF2) from one dataset
Settings: both partners purified

B1: ArfA (alternative rescue factor A) (natural protein, E. coli, UniProt P36675 1-60, looked up)
chain: MSRYQHTKGQIKDNAIEALLHDPLFRQRVEKNKKGKGSYMRKGKHGNRGNWEASGKKVNH
notes: ArfA, E. coli, gene from the ASKA Clone(-) library; the forward primer starts at the first ATG of the gene after the His6 codons, the reverse primer ends at the codon of residue 60; The natural protein is longer than 60 residues; the construct is cut short at the C-terminus; No density for the His6 tag in the maps; source: E. coli BLR/DE3, pET24b+, purified (Ni-NTA, ion exchange, size exclusion); …
binding result: binds
